Our source for the Km for 4E-BP of its phosphorylation by LRRK2-G2019S (in vitro kinase assay, 33P incorporation, 12 nM LRRK2, 1.5-12 µM 4E-BP, Michaelis-Menten fit) and Km for 4E-BP of its phosphorylation by LRRK2 (in vitro kinase assay, 33P incorporation, 12 nM LRRK2, 1.5-12 µM 4E-BP, Michaelis-Menten fit) values is paper PMC2806920.

The target of test [1] is Truncated recombinant LRRK2-G2019S (aa 970-2527) (human) (UniProt Q5S007).
The target of test [2] is Truncated recombinant LRRK2 wild-type (aa 970-2527) (human) (UniProt Q5S007).

As for “4E-BP (eukaryotic initiation factor 4E (eIF4E)-binding protein), His6-tagged 4E-BP1 (from UniProt Q13541 1-118) (natural protein)”, the Km for 4E-BP of its phosphorylation by LRRK2-G2019S (in vitro kinase assay, 33P incorporation, 12 nM LRRK2, 1.5-12 µM 4E-BP, Michaelis-Menten fit) in test [1] worked out at 2.87 µM. Also, the Km for 4E-BP of its phosphorylation by LRRK2 (in vitro kinase assay, 33P incorporation, 12 nM LRRK2, 1.5-12 µM 4E-BP, Michaelis-Menten fit) in test [2] was found to be 2.69 µM.
